{"source": "paper PMC7762955", "about": "“Antibiotic binding releases autoinhibition of the TipA multidrug-resistance transcriptional regulator” (The Journal of Biological Chemistry, 2020)", "molecules": {"B1": {"name": "MtaCC (S15C/E138C), double-cysteine mutant of Mta (natural protein, Bacillus subtilis, UniProt P71039 1-257, looked up)", "chain": "MKYQVKQVAEISGVCIRTLHHYDNIELLNPSALTDAGYRLYSDADLERLQQILFFKEIGFRLDEIKEMLDHPNFDRKAALQSQKEILMKKKQRMDEMIQTIDRTLLSVDGGETMNKRDLFAGLSMKDIEEHQQTYADCVRKLYGKEIAEETEKRTSAYSADDWRTIMAEFDSIYRRIAARMKHGPDDAEIQAAVGAFRDHICQYHYDCTLDIFRGLGEVYITDERFTDSINQYGEGLAAFLREAIIIYCDHQENPRP", "modifications": "disulfide bonds between the introduced cysteines of two protomers (nonreduced sample)", "notes": "source: E. coli BL21 (DE3), purified (nickel-nitrilotriacetic acid, Superdex 200 SEC)"}, "B2": {"name": "Mta: B. subtilis multidrug transporter activation protein, TipA-class (protein)", "chain": "B1 chain with C15S, C138E", "modifications": "left off: His6, end not stated, state not stated"}, "B3": {"name": "MtaCC (protein)", "chain": "B1 chain", "modifications": "disulfide bonds between the introduced cysteines of two protomers (nonreduced sample); left off: His6, end not stated, state not stated"}, "B4": {"name": "MtaH7: truncated protein containing the α6–α7 region, Mta residues 1–144 (protein, UniProt P71039 1-144, looked up, fragment)", "chain": "MKYQVKQVAEISGVSIRTLHHYDNIELLNPSALTDAGYRLYSDADLERLQQILFFKEIGFRLDEIKEMLDHPNFDRKAALQSQKEILMKKKQRMDEMIQTIDRTLLSVDGGETMNKRDLFAGLSMKDIEEHQQTYADEVRKLYG"}, "B5": {"name": "TipAH7 (TipAL residues 1-140), TipAN plus the α6-α7 region (domain or fragment, Streptomyces lividans, UniProt P0A4T9-1 1-140, looked up)", "chain": "MSYSVGQVAGFAGVTVRTLHHYDDIGLLVPSERSHAGHRRYSDADLDRLQQILFYRELGFPLDEVAALLDDPAADPRAHLRRQHELLSARIGKLQKMAAAVEQAMEARSMGINLTPEEKFEVFGDFDPDQYEEEVRERWG", "notes": "as for B1"}, "B6": {"name": "TipAH7: truncated protein consisting of TipAN and the α6–α7 region, TipAL residues 1–140 (protein)", "chain": "B5 chain", "modifications": "left off: His6, end not stated, state not stated"}, "B7": {"name": "TipAL, full-length thiostrepton-induced protein A of Streptomyces lividans (natural protein, UniProt P0A4T9-1 1-253, looked up)", "chain": "MSYSVGQVAGFAGVTVRTLHHYDDIGLLVPSERSHAGHRRYSDADLDRLQQILFYRELGFPLDEVAALLDDPAADPRAHLRRQHELLSARIGKLQKMAAAVEQAMEARSMGINLTPEEKFEVFGDFDPDQYEEEVRERWGNTDAYRQSKEKTASYTKEDWQRIQDEADELTRRFVALMDAGEPADSEGAMDAAEDHRQGIARNHYDCGYEMHTCLGEMYVSDERFTRNIDAAKPGLAAYMRDAILANAVRHTP", "notes": "also called WT TipAL; full-length TipAL; source: E. coli BL21 (DE3), purified (nickel-nitrilotriacetic acid, Superdex 200 SEC)"}, "B8": {"name": "TipAL: full-length S. lividans TipA transcriptional regulatory protein (protein)", "chain": "B7 chain", "modifications": "left off: His6, end not stated, state not stated", "notes": "full-length S. lividans TipA transcriptional regulatory protein"}, "B9": {"name": "TipALCC (protein)", "chain": "B7 chain with T15C, E134C", "modifications": "disulfide bonds between the introduced cysteines of two protomers (nonreduced sample); left off: His6, end not stated, state not stated"}, "B10": {"name": "TipALCC (T15C/E134C), double-cysteine mutant of TipAL (natural protein, Streptomyces lividans, UniProt P0A4T9-1 1-253, looked up)", "chain": "B7 chain with T15C, E134C", "modifications": "disulfide bonds between the introduced cysteines of two protomers (nonreduced sample)", "notes": "as for B1"}, "B11": {"name": "TipAN (TipAL residues 1-109), N terminus of TipAL (domain or fragment, Streptomyces lividans, UniProt P0A4T9-1 1-109, looked up)", "chain": "MSYSVGQVAGFAGVTVRTLHHYDDIGLLVPSERSHAGHRRYSDADLDRLQQILFYRELGFPLDEVAALLDDPAADPRAHLRRQHELLSARIGKLQKMAAAVEQAMEARS", "notes": "its limits may differ from this construct; source: E. coli BL21 (DE3), purified (nickel-nitrilotriacetic acid, Superdex 200 SEC)"}}, "key": {"[1]": {"target": "SkgACC (S16C/E133C), double-cysteine mutant of SkgA (Caulobacter crescentus)", "test": "cross-linking; disulfide bonds between introduced cysteines; reduced and nonreduced 15% SDS-PAGE, Coomassie Brilliant Blue staining"}, "[2]": {"target": "SkgA (stationary-phase regulation of KatG protein), Caulobacter crescentus TipA-class transcriptional regulator, full length (Caulobacter crescentus)", "test": "not stated; SkgA in solution (Fig. S2A); method not given"}, "[3]": {"target": "the molecule itself", "test": "cross-linking; disulfide bonds between introduced cysteines; reduced and nonreduced 15% SDS-PAGE, Coomassie Brilliant Blue staining"}, "mta promoter DNA": {"target": "mta promoter DNA", "test": "Fluorescence polarization assay, mta promoter DNA binding", "set-up": "species or system Bacillus subtilis", "settings": "apo, FPA; for Kd: read-out: Kd, affinity with mta promoter DNA", "description": "(§1) Fluorescence polarization assays (FPAs) were performed to test the structure-based hypothesis that α6–α7 plays a key role in communication between the ligand-binding and DNA-binding regions. […] Parallel experiments were also performed for Mta and SkgA proteins, and consistent results were obtained.\n(§2) FPAs were performed in buffer consisting of 20 mM Tris-HCl, pH 7.5, 200 mM NaCl and 5% (v/v) glycerol at 298 K using a SpectraMax M5 microplate reader system (Molecular Devices, San Jose, CA, USA). The wavelengths of fluorescence excitation and emission were 486 and 525 nm, respectively. 26-bp dsDNA from the −10 and −35 regions of the tipA, mta, and skgA promoters with the sequences […], […], and […] were synthesized with a 5′-carboxyfluorescein label for the respective assays with TipAL, Mta, and SkgA proteins. For assays with thiostrepton supplementation, proteins were incubated with thiostrepton (Sigma) at a 1:1 ratio for 15 min prior to mixing with DNA in wells. Each well of a 384-well plate contained 10 nM of a fluorescently labeled DNA probe and different amounts of proteins with a final volume of 80 μl. DNA-free controls were included, and three replicates were performed for each reaction for each assay. The fluorescence polarization ΔP (in mP units) was calculated and fitted according to a one-site specific binding model using GraphPad Prism7 (GraphPad Software) with the function ΔP = ΔPmax[protein]/(Kd + [protein])."}, "[4]": {"target": "the molecule itself", "test": "SEC; analytical SEC, Superdex 200 10/300, 40 μM protein, 20 mM Tris-HCl pH 7.5, 150 mM NaCl, 1 mM DTT"}, "[5]": {"test_system": "tipA promoter DNA (ptipA)", "test": "Fluorescence polarization assay, tipA promoter DNA binding", "set-up": "species or system Streptomyces lividans", "settings": "apo, FPA; for Kd: read-out: Kd, affinity with the tipA promoter DNA (ptipA)", "description": "as §1, §2"}, "[6]": {"settings": "10 nM 5'-carboxyfluorescein-labeled 26-bp dsDNA, 20 mM Tris-HCl pH 7.5, 200 mM NaCl, 5% glycerol, 298 K, ex 486/em 525 nm, one-site binding fit, three replicates, n.b. = printed in picture, not defined"}, "[7]": {"settings": "no antibiotic, 10 nM 5'-carboxyfluorescein-labeled 26-bp dsDNA, 20 mM Tris-HCl pH 7.5, 200 mM NaCl, 5% glycerol, 298 K, ex 486/em 525 nm, one-site binding fit, three replicates, n.b. = printed in picture, not defined"}}, "note": "Numbering of substitutions follows the chain as printed. In names and notes the source's numbering stands.", "data": [{"molecule": "SkgACC (S16C/E133C), double-cysteine mutant of SkgA (natural protein)", "values": [{"measurement": "stoichiometry N", "setting": "[1]", "value": 2}]}, {"molecule": "SkgA (stationary-phase regulation of KatG protein), Caulobacter crescentus TipA-class transcriptional regulator, full length (natural protein)", "values": [{"measurement": "stoichiometry N", "setting": "[2]", "value": 2}]}, {"molecule": "B1", "values": [{"measurement": "stoichiometry N", "setting": "[3]", "value": 2}]}, {"molecule": "B2", "values": [{"measurement": "Kd", "setting": "mta promoter DNA; [6]", "value": "0.496 ± 0.0703", "unit": "µM"}]}, {"molecule": "B3", "values": [{"measurement": "specific binding with mta promoter DNA", "setting": "mta promoter DNA; double-cysteine mutant", "value": "did not show any specific binding"}, {"measurement": "Kd, affinity with mta promoter DNA", "setting": "mta promoter DNA; [6]", "value": "n.b."}]}, {"molecule": "B4", "values": [{"measurement": "lower DNA-binding affinity than N-terminal truncation", "setting": "mta promoter DNA; MtaH7 vs MtaN, range printed jointly for the three H7 truncations", "value": "4–7 fold"}, {"measurement": "Kd", "setting": "mta promoter DNA; [6]", "value": "0.467 ± 0.0674", "unit": "µM"}]}, {"molecule": "B5", "values": [{"measurement": "stoichiometry N", "setting": "[4]", "value": 2}]}, {"molecule": "B6", "values": [{"measurement": "lower DNA-binding affinity than N-terminal truncation", "setting": "[5]; TipAH7 vs TipAN, range printed jointly for the three H7 truncations", "value": "4–7 fold"}, {"measurement": "Kd", "setting": "[5]; [7]", "value": "0.319 ± 0.0585", "unit": "µM"}]}, {"molecule": "B7", "values": [{"measurement": "stoichiometry N", "setting": "[4]", "value": 2}]}, {"molecule": "B8", "values": [{"measurement": "Kd", "setting": "[5]; [7]", "value": "0.38 ± 0.056", "unit": "µM"}]}, {"molecule": "B9", "values": [{"measurement": "ptipA DNA-binding ability", "setting": "[5]; double-cysteine mutant", "value": "complete loss of DNA-binding ability"}, {"measurement": "Kd, affinity with the tipA promoter DNA (ptipA)", "setting": "[5]; [7]", "value": "n.b."}]}, {"molecule": "B10", "values": [{"measurement": "stoichiometry N", "setting": "[3]", "value": 2}]}, {"molecule": "B11", "values": [{"measurement": "stoichiometry N", "setting": "[4]", "value": 2}]}]}
